From paper PMC9251544

Molecular target: 3×HA-xtMc1r (Xenopus tropicalis melanocortin 1 receptor) (Xenopus tropicalis)

| EC50 of ACTH in the cAMP luciferase reporter assay (pCRE-luc, HEK293T), xtMc1r:xtMrap1 plasmid ratios 1:0 to 1:6; EC50 from 1.171 × 10^−9 M (1:3) to 7.006 × 10^−9 M (1:0) | EC50 of ACTH in the cAMP luciferase reporter assay (pCRE-luc, HEK293T), xtMc1r:xtMrap2 plasmid ratios 1:0 to 1:6; EC50 from 1.513 × 10^−9 M (1:6) to 7.150 × 10^−9 M (1:0) | EC50 of α-MSH in the cAMP luciferase reporter assay (pCRE-luc, HEK293T), xtMc1r:xtMrap1 plasmid ratios 1:0 to 1:6; EC50 from 6.906×10^−10 M (1:6) to 2.806 × 10^−9 M (1:0) | EC50 of α-MSH in the cAMP luciferase reporter assay (pCRE-luc, HEK293T), xtMc1r:xtMrap2 plasmid ratios 1:0 to 1:6; EC50 from 7.550 × 10^−10 M (1:3) to 2.036 × 10^−9 M (1:0) | Substance |
| --- | --- | --- | --- | --- |
| 7.01e-09 M | 7.15e-09 M | – | – | ACTH peptide |
| – | – | 2.81e-09 M | 2.04e-09 M | alpha melanocyte-stimulating hormone (α-MSH) peptide |
